Results taken from patent US20260374828 (published 2026).
Where no end group is shown, it is not given here. [ ]: non-standard residue; d: D form.

B1: Peptide 1-13 (peptide)
chain: Ac-DELEPLTGFRR[dR][dR]-NH2
SMILES: CC(=O)N[C@@H](CC(=O)O)C(=O)N[C@@H](CCC(=O)O)C(=O)N[C@@H](CC(C)C)C(=O)N[C@@H](CCC(=O)O)C(=O)N1CCC[C@H]1C(=O)N[C@@H](CC(C)C)C(=O)N[C@H](C(=O)NCC(=O)N[C@@H](Cc1ccccc1)C(=O)N[C@@H](CCCNC(=N)N)C(=O)N[C@@H](CCCNC(=N)N)C(=O)N[C@H](CCCNC(=N)N)C(=O)N[C@H](CCCNC(=N)N)C(N)=O)[C@@H](C)O
B2: PLP 1-3 (peptide)
chain: RRDELEPLTGFRR
modifications: also: polynorbornene brush polymer conjugate, multivalent
B3: Peptide 1-12 (peptide)
chain: Ac-DELEPLTGF[dR][dR]RR-NH2
SMILES: CC(=O)N[C@@H](CC(=O)O)C(=O)N[C@@H](CCC(=O)O)C(=O)N[C@@H](CC(C)C)C(=O)N[C@@H](CCC(=O)O)C(=O)N1CCC[C@H]1C(=O)N[C@@H](CC(C)C)C(=O)N[C@H](C(=O)NCC(=O)N[C@@H](Cc1ccccc1)C(=O)N[C@H](CCCNC(=N)N)C(=O)N[C@H](CCCNC(=N)N)C(=O)N[C@@H](CCCNC(=N)N)C(=O)N[C@@H](CCCNC(=N)N)C(N)=O)[C@@H](C)O
B4: PLP 1-12 (peptide)
chain: DELEPLTGF[dR][dR]RR
modifications: also: polynorbornene brush polymer conjugate, multivalent

Biological target: Keap1 Kelch domain (UniProt Q14145)
Sequence (Q14145 whole entry, the tested form may be a part): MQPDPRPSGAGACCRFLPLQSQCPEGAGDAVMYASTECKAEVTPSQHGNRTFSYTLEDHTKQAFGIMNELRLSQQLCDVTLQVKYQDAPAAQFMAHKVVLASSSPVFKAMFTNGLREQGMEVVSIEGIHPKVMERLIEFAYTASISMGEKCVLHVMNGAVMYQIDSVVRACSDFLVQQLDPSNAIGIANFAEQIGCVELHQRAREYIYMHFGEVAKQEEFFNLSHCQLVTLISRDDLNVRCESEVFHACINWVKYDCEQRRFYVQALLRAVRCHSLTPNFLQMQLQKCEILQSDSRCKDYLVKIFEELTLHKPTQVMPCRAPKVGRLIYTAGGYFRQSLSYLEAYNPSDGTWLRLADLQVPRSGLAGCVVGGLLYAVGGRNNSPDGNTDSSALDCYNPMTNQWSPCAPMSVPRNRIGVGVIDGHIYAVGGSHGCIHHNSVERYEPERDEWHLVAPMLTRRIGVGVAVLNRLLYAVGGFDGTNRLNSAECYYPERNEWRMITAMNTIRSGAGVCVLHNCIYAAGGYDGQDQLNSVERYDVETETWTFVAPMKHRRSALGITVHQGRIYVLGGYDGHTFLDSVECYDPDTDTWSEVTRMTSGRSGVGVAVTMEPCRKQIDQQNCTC
Assay: other TR-FRET

Row | Binder | IC50 [nM]
1 | B1 | 8.8
2 | B2 | 0.12
3 | B3 | 13.3
4 | B4 | 0.17
